B2: recombinant extracellular domain of the human IL-2 receptor beta subunit (receptor, UniProt P14784 27-240, looked up)
chain: AVNGTSQFTCFYNSRANISCVWSQDGALQDTSCQVHAWPDRRRWNQTCELLPVSQASWACNLILGAPDSQKLTTVDIVTLRVLCREGVRWRVMAIQDFKPFENLRLMAPISLQVVHVETHRCNISWEISQASHYFERHLEFEARTLSPGHTWEEAPLLTLKQKQEWICLETLTPDTQYEFQVRVKPLQGEFTTWSPWSQPLAFRTKPAALGKDT
notes: extracellular domain; also called beta chain of the IL-2 receptor; beta subunit of the receptor

Assay [1] concerns the target B2. In words: phage ELISA; ratio of the signal on the beta subunit extracellular domain to the signal on anti-c-myc antibody 9E10 (display level); anti-M13 antibody-HRP. On the technique in general: ELISA stands for enzyme-linked immunosorbent assay.
Description: The binding capacity of the new variants to the extracellular domain of the IL-2 receptor beta subunit was assessed by ELISA. For this purpose, plates were coated with the recombinant extracellular domain of the IL-2 receptor beta subunit. The bound phages were detected with an anti-M13 antibody conjugated to horseradish peroxidase. Simultaneously, their binding to a plate coated with the monoclonal antibody 9E10 directed against the c-myc peptide that is fused to the proteins presented on the phages was determined to establish the display levels of each. The ratio between the signals obtained with both coating molecules (relative reactivity) is plotted as a measure of the intrinsic binding capacity of each variant to the beta-subunit.
Assay [2] concerns the target T1, IL-2/Fc (K35E) fusion protein (human, UniProt P60568 21-153).
T1 construct: mature; IL-2 fused to the N-terminal end of human IgG1 Fc; also called fusion protein derived from the original IL-2; human IL-2/Fc fusion protein
In words: BIAcore (SPR); format not stated. (In general: SPR reads the build-up and loss of mass on a sensor chip optically.)

In assay [3] the target is T2, H9/Fc (K35E) fusion protein (human, UniProt P60568 21-153).
T2 construct: mature; Same format as the other Fc fusions; also called fusion protein based on the H9 superkine
In words: BIAcore (SPR); format not stated.

As usually defined, the Kd is the free concentration of one partner at which half of the binding sites on the other are occupied at equilibrium, for simple one-to-one binding. As a reminder, the koff is a measure of how fast the partners let go of each other. A high value points to fast dissociation. Broadly, the kon is the second-order rate constant of association. Lower therefore signals slower complex formation.

T2 sequence (P60568 other isoform, or with tags, fused parts or gaps K35E K35E limits assumed): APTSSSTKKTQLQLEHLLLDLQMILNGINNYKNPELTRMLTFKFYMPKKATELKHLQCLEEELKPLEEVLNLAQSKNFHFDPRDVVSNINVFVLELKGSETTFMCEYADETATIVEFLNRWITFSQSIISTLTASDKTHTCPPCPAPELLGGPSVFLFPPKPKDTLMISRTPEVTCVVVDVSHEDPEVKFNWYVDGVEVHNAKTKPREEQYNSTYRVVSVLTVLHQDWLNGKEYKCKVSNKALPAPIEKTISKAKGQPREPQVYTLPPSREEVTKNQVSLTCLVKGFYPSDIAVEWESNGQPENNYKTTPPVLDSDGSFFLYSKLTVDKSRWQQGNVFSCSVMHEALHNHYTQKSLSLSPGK
T1 sequence (P60568 other isoform, or with tags, fused parts or gaps K35E K35E limits assumed): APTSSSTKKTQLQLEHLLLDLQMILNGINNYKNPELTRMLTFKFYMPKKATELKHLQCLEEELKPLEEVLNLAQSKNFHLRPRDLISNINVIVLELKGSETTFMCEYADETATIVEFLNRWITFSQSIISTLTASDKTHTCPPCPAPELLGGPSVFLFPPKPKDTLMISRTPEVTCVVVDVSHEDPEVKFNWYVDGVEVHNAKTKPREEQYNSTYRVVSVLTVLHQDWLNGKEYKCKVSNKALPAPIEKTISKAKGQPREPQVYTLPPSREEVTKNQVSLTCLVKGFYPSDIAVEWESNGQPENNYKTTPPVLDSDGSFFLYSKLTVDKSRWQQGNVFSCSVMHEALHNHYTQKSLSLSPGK

B1: IL-2 variant 1A displayed on phage (S2 library) (other, not shown: large carriers; small tags and cut ends)
chain: TSSSTKKTQLQLEHLLLDLQMILNGINNYKNPKLTRMLTFKFYMPKKATELKHLQCLEEELKPLEEVLNLAQSKNFHFDPHDVVENINVLLLELKGSETTFMCEYADETATIVEFLNRWITFSQSIISTLT
notes: Substitutions are derived from the segment name printed for the fusion protein built from this clone
B1: the binding result in assay [1] is reported as “binds”.
In assay [2], B2 came in with a Kd of 106 nM, a koff of 0.00326 s⁻¹ and a kon of 30800 M⁻¹ s⁻¹. Further, in assay [3], the Kd is 4.09 nM, the koff amounted to 0.000395 s⁻¹ and the kon was found to be 97200 M⁻¹ s⁻¹.

Source of the values: US20250179139A1 (CENTRO DE INMUNOLOG A MOLECULAR, published 2025).
